Binding data for 1 sequence are collected here from article PMC9563714.

The target of this data set is T1, Vfr (Pseudomonas aeruginosa UCBPP-PA14) (UniProt P55222).
T1 sequence: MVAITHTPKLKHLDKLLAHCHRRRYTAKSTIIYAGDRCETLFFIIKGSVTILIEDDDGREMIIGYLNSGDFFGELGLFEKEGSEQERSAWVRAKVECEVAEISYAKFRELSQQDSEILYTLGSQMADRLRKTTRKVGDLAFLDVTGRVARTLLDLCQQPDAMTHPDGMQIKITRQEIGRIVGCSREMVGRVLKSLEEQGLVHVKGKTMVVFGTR
The experiment in a line: EMSA.

For the sequence “TCTGACCCATCCGCGCGACTGGCCCCCGGGCCGGTCGCTCCCCCGGGACGACCGTCGGTCCCGGATCGGCGCGCTTTCCTGAACTATCGATCAGCTGTCACTGGCCGCCGCGCAAACGCTTGGTTAAGATTCCGCCAGCAACCTGGCCACCCGCCATTCCCCAGGCGGAAAGCTCACGAGGCCGAGCCGGGACGAAAATACACAGGGATCCTCTCCAGCGCATG (double strand) [PcyaB]”, the binding result is recorded as “no binding”.
